This data set relates to HaloTag-JF635-DDB2 (human). As to the kind of experiment: single-molecule binding (optical tweezers, confocal). As to conditions: with eGFP-DDB1; from kon and koff; corrected lifetime 39.0 s; UV-C photoproducts (CPD and 6-4PP), random positions; Nuclear extracts in LUMICKS C-trap flow cell, lambda DNA tethered at about 10 pN; buffer, salt, pH and temperature not given in the material.

The results in this text go back to PMC10123111.

Usually Kd stands for the free concentration of one partner at which half of the binding sites on the other are occupied at equilibrium, for simple one-to-one binding. In the case of UV-damaged lambda DNA (40 J/m2), the equilibrium dissociation constant (Kd) turned out to be 0.4 nM.
